This is an account of results in article PMC8152475 (Biomedicines, 2021).

The Kd is the equilibrium constant for the complex coming apart.

The target in assay [1] is T1, unlabeled recombinant TBK1 (UniProt Q9UHD2 1-729).
T1 sequence (looked up): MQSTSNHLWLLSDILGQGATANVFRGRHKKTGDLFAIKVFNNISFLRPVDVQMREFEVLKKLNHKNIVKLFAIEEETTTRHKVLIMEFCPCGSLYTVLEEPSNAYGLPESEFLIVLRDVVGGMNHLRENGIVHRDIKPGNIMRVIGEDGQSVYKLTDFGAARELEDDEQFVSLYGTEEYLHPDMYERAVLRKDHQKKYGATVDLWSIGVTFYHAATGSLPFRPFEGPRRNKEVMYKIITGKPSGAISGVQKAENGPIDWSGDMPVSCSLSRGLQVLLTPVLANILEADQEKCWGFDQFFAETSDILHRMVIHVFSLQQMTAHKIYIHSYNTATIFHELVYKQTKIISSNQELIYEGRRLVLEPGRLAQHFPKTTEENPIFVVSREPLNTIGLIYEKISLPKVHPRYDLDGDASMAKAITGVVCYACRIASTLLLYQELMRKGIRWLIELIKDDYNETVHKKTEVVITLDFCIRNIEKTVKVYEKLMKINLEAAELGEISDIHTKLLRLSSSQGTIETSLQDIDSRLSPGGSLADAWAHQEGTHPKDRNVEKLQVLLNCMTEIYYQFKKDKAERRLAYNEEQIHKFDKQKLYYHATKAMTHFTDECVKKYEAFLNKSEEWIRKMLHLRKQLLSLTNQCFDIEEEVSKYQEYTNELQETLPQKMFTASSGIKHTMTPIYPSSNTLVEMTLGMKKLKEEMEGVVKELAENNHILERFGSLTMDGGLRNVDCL
Description: other fluorescence titration. Particulars: both partners purified.

The target in assay [2] is T2, unlabeled recombinant HK2 (UniProt P52789 1-917).
T2 sequence (looked up): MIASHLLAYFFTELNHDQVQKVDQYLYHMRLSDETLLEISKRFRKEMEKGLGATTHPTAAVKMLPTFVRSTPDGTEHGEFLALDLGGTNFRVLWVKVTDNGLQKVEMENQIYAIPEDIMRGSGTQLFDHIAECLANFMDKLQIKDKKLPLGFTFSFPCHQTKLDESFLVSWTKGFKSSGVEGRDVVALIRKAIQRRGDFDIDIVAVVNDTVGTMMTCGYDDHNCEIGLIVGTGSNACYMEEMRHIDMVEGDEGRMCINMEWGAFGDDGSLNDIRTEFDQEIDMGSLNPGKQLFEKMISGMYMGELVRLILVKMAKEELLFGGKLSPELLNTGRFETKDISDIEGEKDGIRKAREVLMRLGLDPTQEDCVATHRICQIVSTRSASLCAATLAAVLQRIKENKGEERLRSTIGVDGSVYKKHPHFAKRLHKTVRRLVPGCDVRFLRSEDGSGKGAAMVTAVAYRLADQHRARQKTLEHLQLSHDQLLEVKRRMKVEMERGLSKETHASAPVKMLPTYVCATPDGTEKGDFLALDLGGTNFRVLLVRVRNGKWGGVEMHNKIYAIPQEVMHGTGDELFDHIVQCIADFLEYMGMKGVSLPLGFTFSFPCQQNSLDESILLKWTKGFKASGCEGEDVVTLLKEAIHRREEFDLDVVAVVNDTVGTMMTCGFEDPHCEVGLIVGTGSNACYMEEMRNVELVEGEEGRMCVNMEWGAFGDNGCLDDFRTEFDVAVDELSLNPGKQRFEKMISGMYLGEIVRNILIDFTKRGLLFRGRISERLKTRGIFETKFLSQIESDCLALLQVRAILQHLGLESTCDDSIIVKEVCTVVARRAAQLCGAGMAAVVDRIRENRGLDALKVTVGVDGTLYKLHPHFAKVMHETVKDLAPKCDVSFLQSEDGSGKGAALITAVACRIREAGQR
Description: other fluorescence titration. Particulars: both partners purified.

In assay [3] the test system is host proteins in THP-1 macrophage cell lysates. Description: Co-immunoprecipitation from THP-1 cell lysates with mass spectrometry identification of binding partners. Further details: species or system human.
The test system of assay [4] is TBK1. Nature of the assay: Endogenous co-immunoprecipitation with TBK1 in THP-1 cells. The assay is classed as binding, human. As to conditions: 5 μg mL^−1, IP with αHis-agarose bead. The method, then:
(§1) Figure 1 TBK1 and p47phox is bound with MPT63. (A) Identification of TBK1 and p47phox by mass spectrometry analysis in THP-1 cell lysates treated with rMPT63 or rVector. (B) THP-1 cells were stimulated with rMPT63 (5 μg mL^−1) for the indicated times, followed by immunoprecipitation (IP) with αHis-agarose bead and IB with αTBK1, αP-TBK1 (S172), αp47phox, αP-p47phox (S304, 345, 359, and 370), αHis, αActin. […] (E,G) Binding mapping. Schematic diagrams of the structures of MPT63 (upper). At 48 h after transfection with mammalian glutathione S-transferase (GST) or GST-MPT63 and truncated mutant constructs together with Flag-TBK1 or V5-p47phox. 293T cells were used for GST pull down, followed by IB with αFlag or αV5. Cell lysates (WCLs) were used for IB with αFlag or αV5, αGST, and αActin. […]
(§2) Antibody binding was visualized by chemiluminescence (ECL; Millipore) and detected by a Vilber chemiluminescence analyzer (Fusion SL 3; Vilber Lourmat).
(§3) Confocal fluorescence microscopy
(§4) Immunofluorescence analysis was performed as described previously (Koh et al, 2017). […] TRAF6 or His was detected using a 1/100 dilution of the primary Ab for 1 h at 25 °C. […]
(§5) Cell viability relative to non-treated group was measured by MTT assay, as […]

For assay [5], the target named is T3, unlabeled recombinant p47phox (UniProt P14598 1-390).
T3 sequence (looked up): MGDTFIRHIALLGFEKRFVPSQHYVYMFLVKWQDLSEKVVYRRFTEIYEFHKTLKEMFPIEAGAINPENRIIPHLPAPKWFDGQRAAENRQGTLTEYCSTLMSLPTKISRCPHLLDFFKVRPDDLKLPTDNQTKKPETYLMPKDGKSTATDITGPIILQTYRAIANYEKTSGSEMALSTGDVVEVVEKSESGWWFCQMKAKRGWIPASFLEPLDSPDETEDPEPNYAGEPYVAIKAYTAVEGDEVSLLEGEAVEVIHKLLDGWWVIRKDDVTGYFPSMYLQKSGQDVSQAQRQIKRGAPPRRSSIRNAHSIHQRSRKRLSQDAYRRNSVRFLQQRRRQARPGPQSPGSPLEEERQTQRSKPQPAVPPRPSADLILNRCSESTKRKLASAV
Description: other fluorescence titration. As to conditions: both partners purified.

Assay [6] deals with p47phox. Nature of the assay: Endogenous co-immunoprecipitation with p47phox in THP-1 cells. The assay is classed as binding, human. Particulars: rMPT63 5 μg mL^−1, IP with αHis-agarose bead. Here is the method:
as §1, §2, §3, §4, §5

Assay [7] relates to p47phox. The assay is classed as binding.
In assay [8] the test system is murine peritoneal macrophages. Particulars: TNF-α and IL-6 secretion, ref [9]; cited from earlier work.
A further assay deals with Th1 cell. Particulars: MPT63 and its epitope; ref [44]; cited from earlier work.
In assay [9] the target is T4, TBK1 (Homo sapiens, UniProt Q9UHD2).
T4 sequence (Q9UHD2 1-729): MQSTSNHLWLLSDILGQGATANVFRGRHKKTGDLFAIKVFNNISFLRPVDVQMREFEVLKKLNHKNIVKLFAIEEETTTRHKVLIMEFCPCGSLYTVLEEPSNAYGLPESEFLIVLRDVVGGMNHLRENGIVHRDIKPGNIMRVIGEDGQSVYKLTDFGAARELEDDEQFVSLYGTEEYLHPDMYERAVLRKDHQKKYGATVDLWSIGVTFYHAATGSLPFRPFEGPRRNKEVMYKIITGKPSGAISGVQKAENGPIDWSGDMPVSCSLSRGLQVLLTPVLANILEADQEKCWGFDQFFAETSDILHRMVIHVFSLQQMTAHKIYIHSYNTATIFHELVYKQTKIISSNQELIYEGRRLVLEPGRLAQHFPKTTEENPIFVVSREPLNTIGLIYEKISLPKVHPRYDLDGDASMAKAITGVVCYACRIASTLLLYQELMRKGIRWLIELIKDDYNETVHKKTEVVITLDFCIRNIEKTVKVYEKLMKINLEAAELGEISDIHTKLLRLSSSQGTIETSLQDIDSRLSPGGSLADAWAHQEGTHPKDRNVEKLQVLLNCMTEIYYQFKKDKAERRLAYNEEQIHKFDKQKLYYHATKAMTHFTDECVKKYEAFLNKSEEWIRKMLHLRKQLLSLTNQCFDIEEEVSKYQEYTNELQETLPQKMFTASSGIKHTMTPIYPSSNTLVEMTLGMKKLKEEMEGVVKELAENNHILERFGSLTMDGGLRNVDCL
Format: binding.

For assay [10], the system named is HLA-DR, an MHC class II cell surface receptor. Particulars: MPT63 and its epitope; ref [44]; cited from earlier work.
In the next assay the test system is macrophages. Particulars: conformational switch dependent on the pH of the host; ref [8]; cited from earlier work.

B1: fluorescently labelled MPT64 (natural protein)
chain: APKTYCEELKGTDTGQACQIQMSDPAYNINISLPSYYPDQKSLENYIAQTRDKFLSAATSSTPREAPYELNITSATYQSAIPPRGTQAVVLKVYQNAGGTHPTTTYKAFDWDQAYRKPITYDTLWQADTDPLPVVFPIVQGELSKQTGQQVSIAPNAGLDPVNYQNFAVTNDGVIFFFNPGELLPEAAGPTQVLVPRSAIDSMLA
On to B1, for which the figures for the Kd in assay [1] and in assay [2] were 193 nM and 134 nM, respectively.

B2: rMPT64: recombinant MPT64, produced in a bacterially expressed system as MPT63 (protein)
chain: APKTYCEELKGTDTGQACQIQMSDPAYNINISLPSYYPDQKSLENYIAQTRDKFLSAATSSTPREAPYELNITSATYQSAIPPRGTQAVVLKVYQNAGGTHPTTTYKAFDWDQAYRKPITYDTLWQADTDPLPVVFPIVQGELSKQTGQQVSIAPNAGLDPVNYQNFAVTNDGVIFFFNPGELLPEAAGPTQVLVPRSAIDSMLA
In the case of B2, in assay [3], the “binding partners identified by mass spectrometry” value is “interacted with several host proteins, including hexokinase 2 (HK2, 102K), TBK1 (83K), protein kinase Cα (PKCα, 76K), TNF receptor associated factor 6 (TRAF6, 60K), and p38MAPK (38K)”. In the assay with TBK1 [4], the “endogenous interaction with TBK1 and phosphorylated form” value is recorded as “phosphorylated TBK1 (S172) also interacted with rMPT64”.

B3: fluorescently labelled MPT63 (natural protein)
chain: AYPITGKLGSELTMTDTVGQVVLGWKVSDLKSSTAVIPGYPVAGQVWEATATVNAIRGSVTPAVSQFNARTADGINYRVLWQAAGPDTISGATIPQGEQSTGKIYFDVTGPSPTIVAMNNGMEDLLIWEP
Take B3: the results for the Kd in [1] and in assay [5] were 178 nM and 345 nM, respectively.

B4: rMPT63: recombinant MPT63, purified using a 6x His bacterially expressed system (protein)
chain: AYPITGKLGSELTMTDTVGQVVLGWKVSDLKSSTAVIPGYPVAGQVWEATATVNAIRGSVTPAVSQFNARTADGINYRVLWQAAGPDTISGATIPQGEQSTGKIYFDVTGPSPTIVAMNNGMEDLLIWEP
Consider B4, for which the “endogenous interaction with p47phox and phosphorylated forms” value in the assay on p47phox [6] was “interacted with TBK1 and p47phox and, interestingly, with their phosphorylated forms as well (S345 and S359)”. Besides, the “binding partners identified by mass spectrometry” value in [3] was “included TANK-binding kinase (TBK1, 83K), receptor-interacting serine/threonine-protein kinase 1 (RIP1, 75K), RAC-alpha serine/threonine-protein kinase (AKT, 55K), Neutrophil cytosol factor 1 (p47phox, 45K), and p38 mitogen-activated protein kinase (p38MAPK, 38K)”. The “endogenous interaction with TBK1 and phosphorylated form” value in the assay on TBK1 [4] was “interacted with TBK1 and p47phox and, interestingly, with their phosphorylated forms as well”.

B5: MPT63: secretory immunodominant antigen of MTB (protein)
chain: AYPITGKLGSELTMTDTVGQVVLGWKVSDLKSSTAVIPGYPVAGQVWEATATVNAIRGSVTPAVSQFNARTADGINYRVLWQAAGPDTISGATIPQGEQSTGKIYFDVTGPSPTIVAMNNGMEDLLIWEP
For B5, the “region of MPT63 binding p47phox” value with p47phox [7] is “The C-terminal of MPT63 was associated with p47phox, particularly the 150–159 amino acids in the C-terminal domain of MPT63 were important for binding with p47phox. Additionally, E152, D153, and E158 in MPT63 were key amino acids”. In addition, the phagocytic activity entry in assay [8] was “enhanced the phagocytic activity by upregulating the secretion of TNF-α and IL-6”. In addition, the Th1 cell reactivity entry with Th1 cell is “induce a moderate Th1 cell reactivity”. Moreover, the “region of MPT protein binding TBK1” value with TBK1 [9] was “the N-terminal of MPT63 bound with TBK1 and 48–56 peptide was essential for the interaction between MPT63 and TBK1. Specifically, 50–56 amino acids, except G53, seemed to be fundamental for binding”. The “binding to HLA-DR” value in assay [10] was “bind promiscuously to HLA-DR”. Besides, in the assay with macrophages, the macrophage cell death result is “induced cell death of macrophages”.
